Experimental data reported in US10253078 (ZEALAND PHARMA A S, dated 2019).
Changes are numbered by the printed parent chain. Starred links: 1 amine or outer side, 2 acyl side, 3 side chain; linkers in the order of their positions; H or OH if unused. Non-standard residues stand in square brackets, D forms with d. Groups on a side chain read outwards from the residue. *: point of attachment. C20 diacid = O=C(O)CCCCCCCCCCCCCCCCCCC(=O)*; γGlu = O=C(O)[C@H](CCC(=O)[*:2])N[*:1]; Palmitoyl = CCCCCCCCCCCCCCCC(=O)*; Aib = CC(C)(N)C(=O)O

T1: human GIP receptor (human, UniProt P48546 22-466)
T1 sequence (looked up): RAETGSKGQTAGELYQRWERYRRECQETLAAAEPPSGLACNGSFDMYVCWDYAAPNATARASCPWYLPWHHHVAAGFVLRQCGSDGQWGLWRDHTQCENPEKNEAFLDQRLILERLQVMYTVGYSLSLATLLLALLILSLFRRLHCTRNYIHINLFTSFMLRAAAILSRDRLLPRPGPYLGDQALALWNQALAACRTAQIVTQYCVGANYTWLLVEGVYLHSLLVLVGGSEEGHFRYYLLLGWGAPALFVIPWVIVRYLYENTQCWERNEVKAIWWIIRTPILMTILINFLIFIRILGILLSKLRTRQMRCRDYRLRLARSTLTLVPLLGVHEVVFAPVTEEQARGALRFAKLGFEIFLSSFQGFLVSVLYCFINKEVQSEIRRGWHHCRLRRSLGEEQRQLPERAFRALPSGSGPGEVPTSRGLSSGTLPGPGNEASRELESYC

B1: Compound 7 (peptide)
peptide: H-Y[Aib]EGTFISDYSIELDKIHQQDFVNWLLAQKGK([γGlu-Palmitoyl])-NH2
SMILES: CCCCCCCCCCCCCCCC(=O)N[C@@H](CCC(=O)NCCCC[C@H](NC(=O)CNC(=O)[C@H](CCCCN)NC(=O)[C@H](CCC(N)=O)NC(=O)[C@H](C)NC(=O)[C@H](CC(C)C)NC(=O)[C@H](CC(C)C)NC(=O)[C@H](Cc1c[nH]c2ccccc12)NC(=O)[C@H](CC(N)=O)NC(=O)[C@@H](NC(=O)[C@H](Cc1ccccc1)NC(=O)[C@H](CC(=O)O)NC(=O)[C@H](CCC(N)=O)NC(=O)[C@H](CCC(N)=O)NC(=O)[C@H](Cc1c[nH]cn1)NC(=O)[C@@H](NC(=O)[C@H](CCCCN)NC(=O)[C@H](CC(=O)O)NC(=O)[C@H](CC(C)C)NC(=O)[C@H](CCC(=O)O)NC(=O)[C@@H](NC(=O)[C@H](CO)NC(=O)[C@H](Cc1ccc(O)cc1)NC(=O)[C@H](CC(=O)O)NC(=O)[C@H](CO)NC(=O)[C@@H](NC(=O)[C@H](Cc1ccccc1)NC(=O)[C@@H](NC(=O)CNC(=O)[C@H](CCC(=O)O)NC(=O)C(C)(C)NC(=O)[C@@H](N)Cc1ccc(O)cc1)[C@@H](C)O)[C@@H](C)CC)[C@@H](C)CC)[C@@H](C)CC)C(C)C)C(N)=O)C(=O)O
B2: Compound 6 (peptide)
peptide: H-Y[Aib]EGTFISDYSIELDKIHQQDFVNWLLAQK([γGlu-Palmitoyl])-NH2
SMILES: CCCCCCCCCCCCCCCC(=O)N[C@@H](CCC(=O)NCCCC[C@H](NC(=O)[C@H](CCC(N)=O)NC(=O)[C@H](C)NC(=O)[C@H](CC(C)C)NC(=O)[C@H](CC(C)C)NC(=O)[C@H](Cc1c[nH]c2ccccc12)NC(=O)[C@H](CC(N)=O)NC(=O)[C@@H](NC(=O)[C@H](Cc1ccccc1)NC(=O)[C@H](CC(=O)O)NC(=O)[C@H](CCC(N)=O)NC(=O)[C@H](CCC(N)=O)NC(=O)[C@H](Cc1c[nH]cn1)NC(=O)[C@@H](NC(=O)[C@H](CCCCN)NC(=O)[C@H](CC(=O)O)NC(=O)[C@H](CC(C)C)NC(=O)[C@H](CCC(=O)O)NC(=O)[C@@H](NC(=O)[C@H](CO)NC(=O)[C@H](Cc1ccc(O)cc1)NC(=O)[C@H](CC(=O)O)NC(=O)[C@H](CO)NC(=O)[C@@H](NC(=O)[C@H](Cc1ccccc1)NC(=O)[C@@H](NC(=O)CNC(=O)[C@H](CCC(=O)O)NC(=O)C(C)(C)NC(=O)[C@@H](N)Cc1ccc(O)cc1)[C@@H](C)O)[C@@H](C)CC)[C@@H](C)CC)[C@@H](C)CC)C(C)C)C(N)=O)C(=O)O
B3: Compound 26 (peptide)
peptide: YAEGTFISDYSIELDKIAAQDFIEWLLAGPSSGAPPPSK
modifications: Aib at 2; Lys 39 side chain acylated: K((19-Carboxy-nonadecanoyl)-[(Piperazine-1-yl)-acetyl]-Peg3-Peg3); C-terminal amide (-NH2)
B4: Compound 19 (peptide)
peptide: YAEGTFISDYSIELDKKAQRAFIEWLLAQGPSSGAPPPS
modifications: Aib at 2; Lys 17 side chain acylated: K((19-Carboxy-nonadecanoyl)-[(Piperazine-1-yl)-acetyl]-Peg3-Peg3); C-terminal amide (-NH2)
B5: Compound 21 (peptide)
peptide: B4 peptide with R20K, A21E, I23V, Q29A
modifications: Aib at 2; Lys 17 side chain acylated: K((19-Carboxy-nonadecanoyl)-[(Piperazine-1-yl)-acetyl]-Peg3-Peg3); C-terminal amide (-NH2)
B6: Compound 20 (peptide)
peptide: B4 peptide with I23V
modifications: Aib at 2; Lys 17 side chain acylated: K((19-Carboxy-nonadecanoyl)-[(Piperazine-1-yl)-acetyl]-Peg3-Peg3); C-terminal amide (-NH2)
B7: Compound 33 (peptide)
peptide: YAEGTFISDYSIELDKKAAQDFIEWLLAGPSSGAPPPS
modifications: Aib at 2; Lys 17 side chain acylated: K((19-Carboxy-nonadecanoyl)-[(Piperazine-1-yl)-acetyl]-Peg3-Peg3); C-terminal amide (-NH2)

Experiments:
Assay in all cases: cell-based or functional assay
[1] = target: T1, human GIP receptor
[2] = target: T1, human GIP receptor; remark: listed apart in the source
[3] = target: human GLP-1 receptor (human, UniProt P43220 24-463)

| Binder | EC50, hGIP-R level of cAMP (HEK293 cells expressing human GIP R) [1] | EC50 hGIP R (cAMP, HEK293 cells expressing the GIP R) [2] | EC50 hGLP1 R (cAMP, HEK293 cells expressing the GLP-1R) [3] |
| --- | --- | --- | --- |
| H-Y[Aib]EGTFISDYSIELDKK([Peg3-Peg3-γGlu-C20 diacid])AAQDFINWLLAGPSSGAPPPS-NH2 [Compound 31] | 0.012 nM | 0.009 nM | > 100 nM |
| H-Y[Aib]EGTFISDYSIELDKIAAQDFVEWLLAGPSSGAPPPSK([Peg3-Peg3-γGlu-C20 diacid])-NH2 [Compound 27] | 0.013 nM | 0.017 nM | > 10 nM |
| B1 | 0.018 nM | 0.032 nM | – |
| H-Y[Aib]EGTFISDYSIELDKIAQRAFIEWLLAQGPSSGAPPPSK([Peg3-Peg3-γGlu-C20 diacid])-NH2 [Compound 28] | 0.007 nM | 0.013 nM | > 3 nM |
| H-Y[Aib]EGTFISDYSIELDKK([Peg3-Peg3-γGlu-C20 diacid])AAQDFIEWLLAGPSSGAPPPS-NH2 [Compound 32] | 0.02 nM | 0.012 nM | > 100 nM |
| H-Y[Aib]EGTFISDYSIELDKK([Peg3-Peg3-γGlu-C20 diacid])HQQDFVNWLLAQGPSSGAPPPS-NH2 [Compound 9] | 0.008 nM | 0.009 nM | > 3 nM |
| H-Y[Aib]EGTFISDYSIELDKK([Peg3-Peg3-γGlu-C20 diacid])AAQAFVNWLLAGPSSGAPPPS-NH2 [Compound 29] | 0.014 nM | 0.007 nM | > 100 nM |
| B2 | 0.032 nM | 0.014 nM | – |
| H-Y[Aib]EGTFISDYSIELDKK([Peg3-Peg3-γGlu-C20 diacid])AAQDFVNWLLAAGPSSGAPPPS-NH2 [Compound 30] | 0.009 nM | 0.014 nM | > 10 nM |
| B3 | 0.017 nM | 0.032 nM | > 10 nM |
| H-Y[Aib]EGTFISDYSIELDKIAQRAFIEWLLAGPSSGAPPPSK([Peg3-Peg3-γGlu-C20 diacid])-NH2 [Compound 23] | 0.01 nM | 0.005 nM | > 10 nM |
| H-Y[Aib]EGTFISDYSIELDK([Peg3-Peg3-γGlu-C20 diacid])IAQRAFIEWLLAQGPSSGAPPPS-NH2 [Compound 34] | 0.011 nM | 0.017 nM | > 10 nM |
| H-Y[Aib]EGTFISDYSIELDKK([Peg3-Peg3-γGlu-C20 diacid])AAQDFVNWLLAQGPSSGAPPPS-NH2 [Compound 10] | 0.007 nM | 0.008 nM | > 10 nM |
| H-Y[Aib]EGTFISDYSIELDKIAAQDFIEWLLAGPSSGAPPPSK([Peg3-Peg3-γGlu-C20 diacid])-NH2 [Compound 25] | 0.032 nM | 0.008 nM | > 100 nM |
| B4 | 0.006 nM | 0.005 nM | > 3 nM |
| B5 | 0.007 nM | 0.006 nM | > 3 nM |
| B6 | 0.007 nM | 0.006 nM | > 3 nM |
| H-Y[Aib]EGTFISDYSIELDKIAQKEFIEWLLAGPSSGAPPPSK([Peg3-Peg3-γGlu-C20 diacid])-NH2 [Compound 24] | 0.008 nM | 0.01 nM | > 10 nM |
| B7 | 0.014 nM | 0.02 nM | > 10 nM |
| H-Y[Aib]EGTFISDYSIELDKK([Peg3-Peg3-γGlu-C20 diacid])AQKEFVEWLLAAGPSSGAPPPS-NH2 [Compound 22] | 0.005 nM | 0.007 nM | > 10 nM |
